# Test results published in patent publication US7265263B1, “Potato transcription factors, methods of use thereof, and a method for enhancing tuber development” (Iowa State University Research Foundation, Inc., priority 2002, dated 2007).
# B1: POTH1: KNOX transcription factor of potato, SEQ ID NO:17, 345 residues (protein, listed as Solanum tuberosum)
# chain: MDDEMYGFHSTRDDYADKALMSPENLMMQTEYNNFHNYTNSSILTSNPMMFGSDDIQLSSEQTNSFSTMTLQNNDNIYQIRSGNCGGGSGSGGSSKDHNDNNNNNEDYDEDGSNVIKAKIVSHPYYPKLLNAYIDCQKVGAPAGIVNLLEEIRQQTDFRKPNATSICIGADPELDEFMETYCDILLKYKSDLSRPFDEATTFLNKIEMQLGNLCKDDGGVSSDEELSCGEADASMRSEDNELKDRLLRKFGSHLSSLKLEFSKKKKKGKLPKEARQMLLAWWDDHFRWPYPTEADKNSLAESTGLDPKQINNWFINQRKRHWKPSENMQLAVMDNLSSQFFSSDD
# How the values were obtained:
# [1] = tested on: ga20ox1 promoter; assay: Transcription assay, GUS reporter driven by ga20ox1 promoter in tobacco protoplasts; format: cell-based, potato
# Excerpt: The cauliflower mosaic virus (CaMV) 35S promoter in pBI221 (Clontech, Palo Alto, Calif.) was replaced by an enhancer fragment (-832 to -50) of the 35S promoter plus 980 bp of the ga20ox1 promoter to generate the pGAOP::β-glucuronidase (GUS) reporter construct. With this construct, the reporter GUS transcription level is augmented but its transcription may still be affected by the ga20ox1 promoter. A CaMV 35S promoter-driven luciferase (LUC) construct 35S-LUC (obtained from Dr. Takahashi, Dept. of Biological Sciences, Graduate School of Science, Univ. of Tokyo, Japan) was used as an internal control. Effector constructs were also generated by using pBI221 vector as a backbone, with the GUS gene replaced by the full-length cDNAs of either StBEL-05 or POTH1, downstream of the CaMV 35S promoter. Truncated cDNAs that encode the N-terminal protein-binding domains of StBEL-05 or POTH1 were used to generate the dominant negative constructs, StBEL5ΔC295 and POTH1ΔC122, respectively. The reporter construct with the mutated promoter was generated by site-directed PCR mutagenesis with oligos 5′-CTATTTGACTTC*ACACGGTTATTT-3′ (SEQ ID NO:23) and 5′-AAATAACCGTGTG*AAGTCAAATAG-3′ (SEQ ID NO:24).
# Fully expanded leaves from three- to four-week-old tobacco plants were excised and placed in K3 basal media (Kao et al., “Nutritional Requirements for Growth of Vicia hajastana Cells and Protoplasts at a Very Low Density in Liquid Media,” Planta 126:105-110 (1975), which is hereby incorporated by reference in its entirety) supplemented with 0.4 M sucrose, 0.25% (w-v) cellulases (Karlan Research Products, Santa Rosa, CA), and 0.05% (w-v) macerases (Calbiochem, La Jolla, Calif.) and incubated for overnight at 28° C. After incubation, the liberated protoplasts were filtered through sterile cheesecloth into a Babcock bottle, and centrifuged for 10 minutes at 1000 rpm. Protoplasts were collected from the bottleneck area and washed once in K3 media with 0.4 M sucrose and resuspended in K3 media containing 0.4 M glucose to a final concentration of 4×10^6 protoplasts per milliliter. […]
# (§1) Luciferase assays were performed by injecting 100-μL luciferase substrate (Promega, Madison, Wis.) into 20 μL of extract and measuring the emitted photons for 15 seconds in a TD-20 luminometer (Turner Designs, Sunnyvale, Calif.). […] A fluorescence multiwell plate reader, Fluoroskan II (MTX labs, Vienna, Va.), was used to measure GUS activity at 365 nm (excitation) and 455 nm (emission). Each sample was measured three times for both LUC and GUS activity. Relative GUS-LUC activity was calculated by dividing the ratio of GUS activity to LUC activity from different effectors with the ratio from reporter plasmid alone. Relative activities calculated from three transfection replications were presented as a mean±SE.
# [2] = tested on: CaMV 35S promoter; assay: Transcription assay, GUS reporter driven by CaMV 35S promoter in tobacco protoplasts; format: cell-based, cauliflower mosaic virus
# Method: FIGS. 24A-C show schematics of constructs (FIG. 24A) and the repression effect of StBEL-05 and POTH1 on the ga20ox1 promoter (FIG. 24B) and on the 35S CaMV promoter (FIG. 24C). The construct with the LUC gene under the control of the cauliflower mosaic virus (CaMV) 35S promoter was used as an internal control. Each transfection was performed three times. Relative GUS-LUC activity was calculated with reporter alone set as 100%. Data are means±SE.
# For each transfection analysis, 700 μL of tobacco protoplasts (prepared as described above) were mixed with 30 μL 2 M KCl and plasmid DNA in an electroporation cuvette with 0.4-cm electrode gap. […]
# as §1
# [3] = tested on: POTH1; assay: In vitro binding assay (immunoprecipitation) with POTH1; design: species or system Solanum tuberosum; conditions: in vitro
# Method: In vitro binding experiments were performed as described by Ni et al., “PIF3, a Phytochrome-Interacting Factor Necessary for Normal Photoinduced Signal Transduction, is a Novel Basic Helix-Loop-Helix Protein,” Cell 95:657-667 (1998), which is hereby incorporated by reference in its entirety. The full-length sequence for POTH1 was cloned into a pET17b/GAD fusion cassette and transcribed under the control of the T7 promoter. […] Each 50 μl TnT reaction contained 2.0 μg of template plasmid DNA and 20 μmol (20 μCi) of labeled ^35S-methionine. The POTH1:GAD/BEL complex was immunoprecipitated with anti-GAD antibodies (Santa Cruz Biotechnology, Calif.). The proteins from the pellet (one-half the fraction) and for the prey (one-fourth of the reaction volume) were resolved on a 10% SDS-PAGE gel and visualized by autoradiography.
# [4] = tested on: potato ga20ox1 promoter (P1, P2, P3) and first intron; assay: Gel retardation assay with ga20ox1 promoter regions and first intron; format: binding
# Excerpt: The first intron with partial flanking exon sequence (450 bp) of potato ga20ox1 and its promoter (981 bp, provided by Dr. Salomé Prat, CSIC Cantoblanco Campus, Univ. of Madrid, Spain) were used for gel mobility shift assays. Polymerase chain reaction (PCR) was used to amplify three regions of the promoter: -981 to 636 (P1), -660 to 307 (P2), and -331 to 0 (P3). About a 25-bp overlap was maintained between P1 and P2 or P2 and P3 in the chance that the protein-binding site would span the overlapped region. The first intron of this gene was amplified from potato genomic DNA by using PCR and the oligos 5′-[…]-3′ (SEQ ID NO:21) and 5′-[…]-3′ (SEQ ID NO:22) as primers. These primers were designed based on the site of the first intron of the tobacco GA20 oxidase gene Ntc12. The four fragments were purified on a 1.4% agarose gel and labeled with α^32P-dATP using Klenow fragment. […]
# In the competition assays, unlabeled double-stranded DNA fragments (10×, 25×, 50×, 100×) were incubated with the recombinant protein before the addition of the radioactive probe. The dissociation rates were determined by adding 500-fold more cold DNA fragments to the DNA-binding reactions that were being incubated on ice, and loaded onto the running gel every 10 minutes. […]
molecule,measurement,setting,value
B1,relative GUS-LUC activity of the pGAOP::GUS reporter construct,"[1]; co-transfected effector, reporter alone = 100%",decreased by more than half
same,"repression of promoter activity, reporter with point mutation in the binding site",[1]; mutated ga20ox1 promoter,no detectable repression
same,effect on the activity of the CaMV 35S promoter,[2],Neither StBEL-05 nor POTH1 showed any effect
same,homodimer formation,[3],did not form homodimers in vitro
same,binding to ga20ox1 regulatory regions (mobility shift),[4],only formed a complex with P1
